The source of these data is patent publication US20210009703A1 (TUSK THERAPEUTICS, published 2021).

Usually EC50 (read off the curve) stands for the concentration at which the effect is half-maximal. Read a high EC50 (read off the curve) as weaker potency.

Experiment [1] concerns the target T1, human CD25 expressed on cells (human, UniProt P01589 22-272).
T1 construct: Endogenous CD25 on human cells; also called CD25 on human in vitro differentiated Treg cells, SU-DHL-1 cells, SR-786 cells and PBMC
T1 sequence: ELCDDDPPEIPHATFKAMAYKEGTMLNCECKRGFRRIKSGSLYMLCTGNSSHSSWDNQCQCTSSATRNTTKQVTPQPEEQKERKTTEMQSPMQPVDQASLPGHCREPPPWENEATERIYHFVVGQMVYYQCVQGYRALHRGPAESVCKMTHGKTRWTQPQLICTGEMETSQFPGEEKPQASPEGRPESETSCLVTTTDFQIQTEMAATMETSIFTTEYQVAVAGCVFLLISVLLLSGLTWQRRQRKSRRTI
Nature of the experiment: flow cytometry on SU-DHL-1 cells, PE anti-human IgG Fc secondary.
Procedure: Cells were washed again and resuspended in FACS buffer containing DAPI and acquired on the Intellicyt iQue. Live cells were gated using FSC vs SSC parameters by flow cytometry during sample acquisition. Geo Mean Intensity of stained cells were plotted on an XY chart, graphing Geo Mean Intensity against the log of the concentration, and the data fit to a non-linear regression curve from which the EC50 is calculated.

The target of experiment [2] is T2, recombinant human CD25 his tagged (human, UniProt P01589 22-240).
T2 construct: also called rhCD25-his; rhCD25; not shown: His tag
T2 sequence: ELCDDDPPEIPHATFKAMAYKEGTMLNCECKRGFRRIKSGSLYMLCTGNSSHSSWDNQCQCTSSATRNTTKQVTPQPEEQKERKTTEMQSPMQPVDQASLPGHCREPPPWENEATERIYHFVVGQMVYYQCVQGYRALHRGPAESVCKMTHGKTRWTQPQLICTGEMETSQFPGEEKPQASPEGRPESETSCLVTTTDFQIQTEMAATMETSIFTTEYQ
Briefly: ForteBio BLI, avidity format: rhCD25-His on Ni-NTA sensors, IgG in solution; IgG in solution, avidity format.

B1: aCD25-a-672 (antibody, V domains shown)
VH: QVQLVQSGAEVKKPGSSVKVSCKASGGTFSSYAISWVRQAPGQGLEWMGGIIPIFGTANYAQKFQGRVTITADESTSTAYMELSSLRSEDTAVYYCAREYDYKEDWGQGTLVTVSS
VL: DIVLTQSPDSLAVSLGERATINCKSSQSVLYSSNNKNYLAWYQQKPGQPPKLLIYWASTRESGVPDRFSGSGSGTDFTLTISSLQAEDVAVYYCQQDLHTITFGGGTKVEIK
notes: An afucosylated IgG1 form was also made
With B1, in experiment [1], the “EC50 (read off the curve)” value is about 0.2 µg/mL. The Kd in experiment [2] is 1.2 nM.
